# Laboratory results reported in paper PMC10906223 (JCI Insight, 2024).
# Where “and” joins values, the source holds several entries; their conditions need not be identical. Equal values may be shown once.
# B1: Ephrin-A5 Fc: recombinant mouse Ephrin-A5 Fc; natural ligand of EphA4 receptors (protein)
# chain: QDPGSKVVADRYAVYWNSSNPRFQRGDYHIDVCINDYLDVFCPHYEDSVPEDKTERYVLYMVNFDGYSACDHTSKGFKRWECNRPHSPNGPLKFSEKFQLFTPFSLGFEFRPGREYFYISSAIPDNGRRSCLKLKVFVRPTNSCMKTIGVHDRVFDVNDKVENSLEPADDTVHESAEPSRGEN
# modifications: left off: Fc, end not stated, kept
# notes: recombinant mouse Ephrin-A5 Fc; natural ligand of EphA4 receptors
# How the values were obtained:
# [1] = tested on: human dispersed islet cells; assay: Immunofluorescence: F-actin intensity in glucagon+ human dispersed islet cells; type: cell-based; conditions: human cells; individual values; Figure 3E; listed as E;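 note: ImageJ intensity within ROI drawn around each glucagon+ cell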
# Experimental: (§1) Coverslips were treated with WCDD301, preclustered Ephrin-A5 Fc, or preclustered Fc in the following sequential order: KRBH (11 mM glucose, 30 minutes), KRBH (1 mM glucose, 60 minutes), KRBH (1 mM glucose, 30 minutes), and KRBH (11 mM glucose, 60 minutes). After treatment, coverslips were washed once in PBS, fixed in 2% paraformaldehyde in PBS (30 minutes), and again washed in PBS. […] Following wash in PBS, coverslips were incubated in a mixture of Alexa Fluor 555 Phalloidin (Cell Signaling Technology, catalog 8953) and secondary antibodies (goat anti-rabbit Alexa Fluor 488, catalog A-21094, 1:1,000, Molecular Probes; and goat anti-mouse Alexa Fluor 633, catalog A21052, 1:1,000, Life Technologies) for 1 hour at RT. Both primary and secondary antibodies were diluted in blocking buffer containing 0.05% Tween 20. Coverslips were washed using PBS and counterstained by using DAPI (1:1,000) for 10 minutes. Following 2 washes in PBS, coverslips were mounted on glass slides using ProLong Glass Antifade Mountant (Invitrogen, catalog P36980). Images were captured using the Zeiss LSM880 microscope with a Plan-Apochromat 63× 1.4 NA objective lens by setting dual-band dichroic/filter for 405, 488, 561, and 633 nm laser excitation. For each slide, 25–30 fields of view were scanned, and in each field of view, 3–5 cells were imaged. […] Values of intensity were compared among groups using 1-way ANOVA, α = 0.05.
# [2] = tested on: human dispersed islet cells; assay: Immunofluorescence: EphA4 intensity in glucagon+ human dispersed islet cells; type: cell-based; conditions: human cells; individual values; Figure 3G; listed as E;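 note: ImageJ intensity within ROI drawn around each glucagon+ cell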
# Experimental: as §1
# [3] = tested on: mouse dispersed islet cells; assay: Immunofluorescence: F-actin intensity in glucagon+ mouse dispersed islet cells; type: cell-based; conditions: mouse cells; individual values; Figure 3F; listed as E;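 note: ImageJ intensity within ROI drawn around each glucagon+ cell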
# Experimental: as §1
# [4] = tested on: murine dispersed islet cells; assay: Glucagon secretion from murine dispersed islet cells; type: cell-based, mouse; conditions: for Secretion of glucagon: E + Rhy (2.5 µM), Figure 1H; for Secretion of glucagon / Relative secretion of glucagon: listed as E; for Relative secretion of glucagon: Ephrin-A5 Fc (E), one value per mouse, Figure 1F
# Experimental: (§2) Pancreata of nondiabetic C57BL/6J mice were digested using collagenase P (Roche Diagnostics, catalog 11213873001), and islets were manually picked up using a stereomicroscope (ZEISS Stemi 305). […] Isolated mouse islets or provided human islets were dispersed as described ([28]). Briefly, 100–120 islets were washed 2 times using modified HBSS, then dispersed in 600 μL Accutase (Innovative Cell Technologies, catalog AT-104) by gently pipetting up and down for 7 minutes at 37°C. […] Following refreshing of KRBH, cells were dispensed in 8 microfuge tubes (2,000 cells/tube) and treated with WCDD301, preclustered Ephrin-A5 Fc, or preclustered Fc in the presence or absence of the competitive inhibitor of EphA4 receptor, rhyncophylline ([60]) (MilliporeSigma, catalog SML2345). In the presence or absence of these effectors, secretion assay was performed sequentially as shown in Supplemental Table 5. […] Preclustering of Ephrin-A5 Fc was done by mixing Ephrin-A5 Fc or Fc alone (BioLegend, catalog 790102) with anti-Fc antibody (Invitrogen, catalog A16086) (1:10 molar ratio) 20 minutes before treatment ([62]). […] Shedding of cleaved EphA4 was measured from the cell culture medium. Experiments were performed by dispersion of 200 islets, and EphA4 levels in media were measured by EphA4 ELISA (ABclonal, catalog RK06572).
# [5] = tested on: dispersed islet cells of donors with T1D; assay: Insulin secretion from dispersed islet cells of donors with T1D; type: cell-based, human; conditions: dispersed islet cells, T1D donors, one value per donor, Figure 2J;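 note: insulin concentration in collected medium by Lumit immunoassay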
# Experimental: as §2
# (§3) The Integrated Islet Distribution Program provided us human donor islets with their characteristics (Supplemental Table 6). Islets were centrifuged at 500g for 3 minutes, resuspended in CMRL 1066 medium (Gibco, catalog 1150-037) containing 11 mM glucose, and rested in an incubator overnight.
# (§4) For the hormone secretion assay, islets or dispersed islet cells were adapted in KRBH buffer containing 11 mM glucose for 1 hour. Then, after 2 washes in HBSS containing 11 mM glucose, islets or cells were treated in the following sequential order in the presence or absence of WCDD301: incubation in KRBH (1 mM glucose, 30 minutes) followed by medium collection, incubation in KRBH (11 mM glucose, 30 minutes) followed by medium collection.
# [6] = tested on: isolated islets of donors with T1D; assay: Insulin secretion from isolated islets of donors with T1D; type: cell-based, human; conditions: isolated islets, T1D donors, one value per donor, Figure 2I, listed as E;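 note: insulin concentration in collected medium by Lumit immunoassay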
# Experimental: as §3, §4
# [7] = tested on: human donor dispersed islet cells; assay: Somatostatin secretion from non-diabetic human donor dispersed islet cells; type: cell-based; conditions: Ephrin-A5
# Experimental: as §2, §3, §4
# [8] = tested on: murine dispersed islet cells; assay: Insulin secretion from murine dispersed islet cells; type: cell-based, mouse; conditions: Ephrin-A5 Fc (E), one value per mouse, Figure 1G, listed as E
# Experimental: as §2
# [9] = tested on: isolated islets of donors with T1D; assay: Glucagon secretion from isolated islets of donors with T1D; type: cell-based, human; conditions: isolated islets, T1D donors, one value per donor, Figure 2G, listed as E
# Experimental: as §3, §4
# [10] = tested on: mouse dispersed islet cells; assay: Immunofluorescence: EphA4 intensity in glucagon+ mouse dispersed islet cells; type: cell-based; conditions: mouse cells; individual values; Figure 3H; listed as E;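 note: ImageJ intensity within ROI drawn around each glucagon+ cell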
# Experimental: as §1
# [11] = tested on: dispersed islet cells of donors with T1D; assay: Glucagon secretion from dispersed islet cells of donors with T1D; type: cell-based, human; conditions: dispersed islet cells, T1D donors, one value per donor, Figure 2H, listed as E
# Experimental: as §2, §3, §4
molecule,measurement,setting,value
B1,F-actin intensity,[1],9.8 and 7.6 and 4.7 and 8.3 and 7.5 and 5.1 and 5.9 and 5.2
same,EphA4 intensity,[2],45.7 and 17.5 and 5.4 and 39.9 and 12.3 and 5.9 and 20.4 and 7.4 and 4.4
same,F-actin intensity,[3],8.2 and 11.3 and 9.4 and 8.4 and 9.8 and 8.6 and 5.2 and 8.9 and 7.7
same,Effect on arginine-stimulated glucagon secretion,"[4]; 1 mM and 11 mM glucose, Arg 25 mM, 301 3 µM, E 4 µg/mL, Supplemental Figure 2",its effect was suppressed
same,Secretion of glucagon,[4]; Glucose (1 mM),0.8 and 0.85 and 0.95 and 1.05 and 1
same,Secretion of glucagon,[4]; Glucose (11 mM),1.1 and 1.07 and 1.2 and 1.05 and 1.15
same,Relative secretion of glucagon,[4]; Glucose (1 mM),0.85 and 0.95 and 1.05 and 0.7 and 0.8
same,Relative secretion of glucagon,[4]; Glucose (11 mM),1.01 and 0.8 and 0.9 and 0.85 and 0.94
same,Secretion of insulin,[5]; 1 mM glucose,0.06
same,Secretion of insulin,"[5]; 11 mM glucose, listed as E",0.10 and 0.05
same,Secretion of insulin,[6]; 1 mM glucose,0.075 and 0.07
same,Secretion of insulin,[6]; 11 mM glucose,0.11 and 0.05
same,Somatostatin secretion (Supplemental Figure 4D; quantity not given),[7],1908.4 and 2981.9 and 2200.0
same,Relative secretion of insulin,[8]; Glucose (1 mM),0.75 and 0.2 and 0.32 and 0.45 and 0.69
same,Relative secretion of insulin,[8]; Glucose (11 mM),1.02 and 1 and 0.85 and 0.8 and 0.96
same,Secretion of glucagon,[9]; 1 mM glucose,40.65 and 55.72
same,Secretion of glucagon,[9]; 11 mM glucose,37.25 and 40.79
same,EphA4 intensity,[10],18.2 and 16.2 and 19.0 and 16.0 and 17.1 and 20.0 and 17.0 and 15.6 and 21.0 and 18.0 and 33.1 and 50.6 and 24.4 and 25.7
same,Secretion of glucagon,[11]; 1 mM glucose,14.105 and 25.56
same,Secretion of glucagon,[11]; 11 mM glucose,38.15 and 32.58
